Data as given in patent US20250313637A1 (DREN BIO MANAGEMENT, published 2025).

B1: M-Fab 2M24xCD20 bispecific antibody (2M24xCD20 hG1M) (bispecific antibody, human IgG1, kappa)
heavy 1: not shown
light 1: DIQMTQSPSSVSASVGDRVTITCRASQGISSWLAWYQQKPGKAPKLLIFGASSLQSGVPSRFSGSGSGTDFTLTVSSLQPEDFATYYCQQAYSFPFTFGPGTKVDIERTVALHRPDVYLLPPAREQLNLRESATIWCLVTGFSPADVFVQWMQRGQPLSPEKYVTSAPMPEPQAPGRYFAHSILTVSEEEWNTGETYTCVVAHEALPNRVTERTVDKSTGEC
heavy 2: QVQLQQPGAELVKPGASVKMSCKASGYTFTSYNMHWVKQTPGRGLEWIGAIYPGNGDTSYNQKFKGKATLTADKSSSTAYMQLSSLTSEDSAVYYCARSTYYGGDWYFNVWGAGTTVTVSAASTKGPSVFPLAPSSKSTSGGTAALGCLVKDYFPEPVTVSWNSGALTSGVHTFPAVLQSSGLYSLSSVVTVPSSSLGTQTYICNVNHKPSNTKVDKKVEPKSCDKTHTCPPCPAPELLGGPSVFLFPPKPKDTLMISRTPEVTCVVVDVSHEDPEVKFNWYVDGVEVHNAKTKPREEQYNSTYRVVSVLTVLHQDWLNGKEYKCKVSNKALPAPIEKTISKAKGQPREPQVYTLPPSREEMTKNQVSLSCAVKGFYPSDIAVEWESNGQPENNYKTTPPVLDSDGSFFLVSKLTVDKSRWQQGNVFSCSVMHEALHNRFTQKSLSLSPG
light 2: QIVLSQSPAILSASPGEKVTMTCRASSSVSYIHWFQQKPGSSPKPWIYATSNLASGVPVRFSGSGSGTSYSLTISRVEAEDAATYYCQQWTSNPPTFGGGTKLEIKRTVAAPSVFIFPPSDEQLKSGTASVVCLLNNFYPREAKVQWKVDNALQSGNSQESVTEQDSKDSTYSLSSTLTLSKADYEKHKVYACEVTHQGLSSPVTKSFNRGEC
B2: DuetMab 2M24xCD20 bispecific antibody (2M24xCD20 hG1 Duet) (bispecific antibody, V domains shown)
VH 1: QVQLVQSGAEVKKPGASVKVSCKSSGYTFTDYYIHWVRQAPGQGLEWMGWINPNSGDTNYAQKFQGRITMTRDTSISTAYLELSRLRSDDTAVFYCARNSGSYSFGYWGQGTLVTVSS
VL 1: DIQMTQSPSSVSASVGDRVTITCRASQGISSWLAWYQQKPGKAPKLLIFGASSLQSGVPSRFSGSGSGTDFTLTVSSLQPEDFATYYCQQAYSFPFTFGPGTKVDIE
VH 2: QVQLQQPGAELVKPGASVKMSCKASGYTFTSYNMHWVKQTPGRGLEWIGAIYPGNGDTSYNQKFKGKATLTADKSSSTAYMQLSSLTSEDSAVYYCARSTYYGGDWYFNVWGAGTTVTVSA
VL 2: QIVLSQSPAILSASPGEKVTMTCRASSSVSYIHWFQQKPGSSPKPWIYATSNLASGVPVRFSGSGSGTSYSLTISRVEAEDAATYYCQQWTSNPPTFGGGTKLEIK
notes: Human IgG1 in the DuetMab format with engineered disulfide bonds (Mazor 2015)
B3: 2+1 M-Fab (2M24xTrop2 hIgG1) bispecific antibody (bispecific antibody)
heavy 1: not shown
light 1: not shown
heavy 2: not shown
light 2: DIVLTQSPGTLSLSPGERATLSCRASQSVSSSYLAWYQQKPGQAPRLLISGASSRATGIPDRFSGSGSGTDFTLTISRLEPEDFAVYYCQQYGSSHRTFGQGTKVEIKRTVALHRPDVYLLPPAREQLNLRESATIWCLVTGFSPADVFVQWMQRGQPLSPEKYVTSAPMPEPQAPGRYFAHSILTVSEEEWNTGETYTCVVAHEALPNRVTERTVDKSTGES

Columns and labels:
[1] = target: T1, human Dectin-1 expressed by HEK-Blue hDectin-1-a cells (human, UniProt Q9BXN2 1-247); test: cell-based or functional assay
T1 sequence: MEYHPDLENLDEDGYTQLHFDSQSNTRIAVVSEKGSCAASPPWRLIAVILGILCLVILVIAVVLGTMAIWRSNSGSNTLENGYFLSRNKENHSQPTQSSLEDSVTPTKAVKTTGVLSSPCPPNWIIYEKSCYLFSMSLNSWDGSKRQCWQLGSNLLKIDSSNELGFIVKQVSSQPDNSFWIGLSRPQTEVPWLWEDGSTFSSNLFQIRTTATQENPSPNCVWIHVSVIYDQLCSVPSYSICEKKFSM

[2] = target: T2, CD20 expressed on Raji cells (UniProt P11836 1-297, limits assumed); test: flow cytometry on CD20-expressing Raji cells
T2 construct: whole, on cells; also called CD20-expressing Raji cells; CD20-expressing B cell lymphoma Raji cell line
T2 sequence (looked up): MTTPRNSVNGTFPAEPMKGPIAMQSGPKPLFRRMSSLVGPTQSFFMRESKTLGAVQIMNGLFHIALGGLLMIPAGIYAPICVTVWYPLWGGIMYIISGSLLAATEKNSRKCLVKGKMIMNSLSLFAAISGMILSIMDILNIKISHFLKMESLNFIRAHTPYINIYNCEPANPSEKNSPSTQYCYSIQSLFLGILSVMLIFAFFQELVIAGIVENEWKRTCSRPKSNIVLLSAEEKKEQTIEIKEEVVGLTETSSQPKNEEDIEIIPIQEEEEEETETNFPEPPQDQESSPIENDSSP
Experimental: To evaluate the effect of the 2M24xCD20 bispecific antibody on cells, its binding affinity for cells expressing Dectin-1 or CD20 was measured. Two different formats were used to drive heavy:light chain pairing and bispecific antibody assembly: the DuetMab format with engineered disulfide bonds (see Mazor, Y. et al. (2015) MAbs 7:377-389) (“2M24xCD20 hG1 Duet”) and the M-Fab format described herein (see, e.g., FIG. 3) (“2M24xCD20 hG1M”), as compared to monospecific anti-CD20 with hG1 Fc. Binding of the bispecific 2M24xCD20 antibodies to Dectin-1-expressing HEK293 cells was assessed by flow cytometry (FIG. 7A). Both M-Fab and DuetMab formats were able to bind cells expressing Dectin-1 with similar affinities. Binding of the bispecific 2M24xCD20 antibodies to cells expressing CD20 was also assessed by flow cytometry, using the CD20-expressing B cell lymphoma Raji cell line (FIG. 7B). Both M-Fab and DuetMab were able to bind cells expressing CD20 with similar affinities, but with reduced affinity compared to the parental monospecific anti-CD20 antibody.

Row | Binder | SEAP reporter assay EC50 (OD630), HEK-Blue hDectin-1-a cells co-cultured with CD20-expressing Raji cells, Exp. 1 [1] [nM] | SEAP reporter assay EC50 (OD630), HEK-Blue hDectin-1-a cells co-cultured with CD20-expressing Raji cells, Exp. 2 [1] [nM] | binding result [2] | SEAP reporter assay EC50, in presence of CHO cells (~2 million copies/cell) [1] [nM] | SEAP reporter assay EC50, in presence of H2170 cells expressing Trop2 (~136,000 copies/cell) [1] [nM] | SEAP reporter assay EC50, in presence of HeLa cells expressing Trop2 (~25,500 copies/cell) [1] [nM] | SEAP reporter assay, fold shift in EC50 against traditional bispecific, CHO cells [1] [fold] | SEAP reporter assay, fold shift in EC50 against traditional bispecific, H2170 cells [1] [fold] | SEAP reporter assay, fold shift in EC50 against traditional bispecific, HeLa cells [1] [fold]
1 | B1 | 3.65 | 3.53 |  |  |  |  |  |  | 
2 | B2 | 2.63 | 3.19 | binds |  |  |  |  |  | 
3 | B3 |  |  |  | 0.13 | 0.17 | 0.37 | 9.8 | 47.6 | 4.7
